Assay [1] addresses soluble DP4 (HLA-DPA1*01:03/DPB1*04:01) (human). The assay is described as follows: fluorescence polarisation. A general note: In fluorescence polarisation assays a small probe gives low polarisation when free and higher when bound to something large.
The target is the same in assay [2]. The assay is described as follows: fluorescence polarisation. This is another data set of the same source.

For orientation: IC50 means the concentration that gives 50% inhibition. A high value points to weaker potency in that assay.

The molecule “OC43 hemagglutinin esterase peptide 259–273 (P1)” yielded a concentration for half-maximal inhibition (IC50) in assay [1] below 1 µM.
Consider RSFIEDLLFNKVTLA (modifications not checked) [SARS-CoV-2 homolog of the OC43 peptide P4], for which the fold change of binding against the OC43 peptide P4 in assay [2] turned out to be 10 fold.

(Values after article doi:10.1101/2022.12.01.518643 (bioRxiv, 2022).)
